In series [1] the target is AG22 (1-422) S16D/S411D (human). Put plainly: small-angle X-ray scattering (SAXS) titration; AG22 (1-422) S16D/S411D at 26.5 µM (1.25 mg/mL) pre-mixed with 14-3-3 at molar 14-3-3_(2):AG22 ratios of 0.5:1.0, 1.0:1.0, 1.5:1.0 and 2.0:1.0, about 1 hour on ice, measured at room temperature (295 K); scattering fitted as a linear combination of the profiles of 14-3-3_(2), AG22 and the cross-linked complex; Kd = (W_AG22 x W_14-3-3)/W_Complex for each titration point.

The target is the same in series [2]. The series is described as above. The source holds these as a separate data set.
Series [3] concerns the molecule itself. Put plainly: cross-linking; AG22 proteins (10 µM) and 14-3-3 (30 µM), alone or mixed, in 50 mM HEPES pH 8.6 with 3 mM BS3 at room temperature for 5 to 30 min; SDS-PAGE, Coomassie Blue.
For series [4], the target named is T1, AG22 (1–145) S16D (human).
T1 chain: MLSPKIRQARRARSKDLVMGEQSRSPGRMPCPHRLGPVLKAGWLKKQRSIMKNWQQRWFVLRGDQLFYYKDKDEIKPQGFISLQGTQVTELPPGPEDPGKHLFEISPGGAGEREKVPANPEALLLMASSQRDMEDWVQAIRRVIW
The description is as above. The settings on record: both partners purified.

Series [5] has as its target AG22 (1–422) S16D/S411D phosphomimic double mutant (human). Put plainly: cross-linking + SEC; 1:2 mixture cross-linked with BS3 for 30 min in 50 mM Hepes pH 8.6, purified by gel filtration, then analytical Superdex S200 10/300GL in 25 mM HEPES pH 7.5, 150 mM NaCl, 2 mM β-ME. On the technique in general: SEC sorts molecules by how far they enter the pores of the column.
The target of series [6] is AG22 (1-422) S16D/S411D (human). Put plainly: small-angle X-ray scattering (SAXS) titration; AG22 (1-422) S16D/S411D at 26.5 µM (1.25 mg/mL) pre-mixed with 14-3-3 at molar 14-3-3_(2):AG22 ratios of 0.5:1.0, 1.0:1.0, 1.5:1.0 and 2.0:1.0, about 1 hour on ice, measured at room temperature (295 K); scattering fitted as a linear combination of the profiles of 14-3-3_(2), AG22 and the cross-linked complex; Kd = (W_AG22 x W_14-3-3)/W_Complex for each titration point. This is another data set of the same source.

The target of series [7] is wild type AG22 (1–422) (human). Nature of the series: cross-linking; AG22 proteins (10 µM) and 14-3-3 (30 µM), alone or mixed, in 50 mM HEPES pH 8.6 with 3 mM BS3 at room temperature for 5 to 30 min; SDS-PAGE, Coomassie Blue.
Series [8] addresses AG22 (1–422) S16D/S411D phosphomimic double mutant (human). The series is described as above.
Series [9] has the same target. Put plainly: SAXS titration; AG22 (1–422) S16D/S411D at 26.5 µM (1.25 mg/mL) mixed with 14-3-3 dimer at molar ratios 0.5, 1.0, 1.5 and 2.0; about 1 h on ice; data fitted as linear combinations of the profiles of the two proteins and of the cross-linked complex; Kd counted on the 14-3-3 dimer.

Like-named read-outs stand apart in the source and are kept apart here.

B1: human 14-3-3 β (natural protein)
chain: MTMDKSELVQKAKLAEQAERYDDMAAAMKAVTEQGHELSNEERNLLSVAYKNVVGARRSSWRVISSIEQKTERNEKKQQMGKEYREKIEAELQDICNDVLELLDKYLIPNATQPESKVFYLKMKGDYFRYLSEVASGDNKQTTVSNSQQAYQEAFEISKKEMQPTHPIRLGLALNFSVFYYEILNSPEKACSLAKTAFDEAIAELDTLNEESYKDSTLIMQLLRDNLTLWTSENQGDEG
notes: human 14-3-3 β isoform, codon-optimized synthetic gene (GeneArt) in pET20b; calculated monomer mass 29.3 kDa; the printed monomer mass of 29.3 kDa would fit the whole protein with the tag; Dimer by cross-linking and SAXS; also called 14-3-3_(2); 14-3-3 β isoform; not shown: His6, C-terminal, kept
The Kd is the equilibrium constant for the complex coming apart. What is called stoichiometry N is the number of molecules, sites or subunits per partner or assembly. B1: the Kd in series [1] is 27.4 µM; in [1] (record 2), 30.6 µM; in series [2], 34.2 µM; in series [6], 20.9 µM; in series [9], 28 µM. Also, the results for the “stoichiometry N” value in series [3] and in series [4] were 2 and 2 14-3-3 chains per AG22 molecule, respectively. Besides, the stoichiometry N (14-3-3 chains per AG22 molecule) in series [5], in series [7] and in series [8] was 2 in each case.

Source of the values: PMC3429473, “The Weak Complex between RhoGAP Protein ARHGAP22 and Signal Regulatory Protein 14-3-3 Has 1∶2 Stoichiometry and a Single Peptide Binding Mode” (PLoS ONE, 2012).
